Test results published in US20220211857A1, “POLYPEPTIDE DERIVATIVE AND PREPARATION METHOD THEREOF” (NINGBO KUNPENG BIOTECH CO., LTD., priority 2019, published 2022).
Where a SMILES comes first, the peptide text is derived from it. The star is where a group is joined. X1 = O=C(O)CCCCCCCCCCCCCCC(=O)NC(CCC(=O)NCCOCCOCC(=O)NCCOCCOCC(=O)NCCn1cc(CCOC(=O)*)nn1)C(=O)O; X3 = O=C(O)CCCCCCCCCCCCCCC(=O)NC(CCC(=O)NCCOCCOCCOCCOCCn1cc(CCOC(=O)*)nn1)C(=O)O; X5 = O=C(O)CCCCCCCCCCCCCCC(=O)NC(CCC(=O)NCCOCCOCCOCCn1cc(CCOC(=O)*)nn1)C(=O)O

What was measured:
[1] = Pharmacokinetics studies of PTH-1 derivatives in rats (single subcutaneous injection, LC-MS/MS, NCA); type: in vivo; settings: rat; for half-lives (in words): experiment of Example 10 repeated in the same way
Procedure: PTH-1 and L6-GFA16-PTH-1 were injected subcutaneously with a single administration of 8.6 μg/kg, respectively. Animals in each group were collected blood at 0 min, 5 min, 15 min, 30 min, 1 h, 2 h, and 4 h after administration. […] Exposure time of drugs in vivo was prolonged and exposure doses were increased.

[2] = Pharmacokinetics studies of GLP-1 derivatives in rats (single subcutaneous injection, LC-MS/MS, NCA); settings: rat; for half-lives (in words): experiment of Example 8 repeated in the same way
Procedure: The experiment comprised a reference substance group and a test substance group. GLP-1 and L6-GFA16-GLP-1 were injected subcutaneously with a single administration of 0.5 mg/kg, respectively. Animals in each group were collected blood at 15 min, 30 min, 1 h, 2 h, 3 h, 5 h, 7 h, 12 h, and 24 h after administration. LC-MS/MS analysis method was used to detect contents of different GLP-1 analogues.

For `CC[C@H](C)[C@H](NC(=O)[C@H](CCC(=O)O)NC(=O)[C@H](CO)NC(=O)[C@@H](NC(=O)[C@@H](N)CO)C(C)C)C(=O)N[C@@H](CCC(N)=O)C(=O)N[C@@H](CC(C)C)C(=O)N[C@@H](CCSC)C(=O)N[C@@H](Cc1c[nH]cn1)C(=O)N[C@@H](CC(N)=O)C(=O)N[C@@H](CC(C)C)C(=O)NCC(=O)N[C@@H](CCCNC(=N)N)C(=O)N[C@@H](Cc1c[nH]cn1)C(=O)N[C@@H](CC(C)C)C(=O)N[C@@H](CC(N)=O)C(=O)N[C@@H](CO)C(=O)N[C@@H](CCSC)C(=O)N[C@@H](CCC(=O)O)C(=O)N[C@@H](CCCNC(=N)N)C(=O)N[C@H](C(=O)N[C@@H](CCC(=O)O)C(=O)N[C@@H](Cc1c[nH]c2ccccc12)C(=O)N[C@@H](CC(C)C)C(=O)N[C@@H](CCCNC(=N)N)C(=O)N[C@@H](CCCCNC(=O)OCCc1cn(CCNC(=O)COCCOCCNC(=O)COCCOCCNC(=O)CCC(NC(=O)CCCCCCCCCCCCCCC(=O)O)C(=O)O)nn1)C(=O)N[C@@H](CCCNC(=N)N)C(=O)N[C@@H](CC(C)C)C(=O)N[C@@H](CCC(N)=O)C(=O)N[C@@H](CC(=O)O)C(=O)N[C@H](C(=O)N[C@@H](Cc1c[nH]cn1)C(=O)N[C@@H](CC(N)=O)C(=O)N[C@@H](Cc1ccccc1)C(=O)O)C(C)C)C(C)C` (stereo partly drawn) [L6-GFA16-PTH] (H-SVSEIQLMHNLGRHLNSMERVEWLRK(X1)RLQDVHNF-OH), the Tmax ([1]; in vivo, sc, s.c. 8.6 μg/kg, summary of Table 3, read-out: peak times) was about 1.6 h.

In the case of `CC[C@H](C)[C@H](NC(=O)[C@H](Cc1ccccc1)NC(=O)[C@H](CCC(=O)O)NC(=O)[C@H](CCCCNC(=O)OCCc1cn(CCOCCOCCNC(=O)CCC(NC(=O)CCCCCCCCCCCCCCC(=O)O)C(=O)O)nn1)NC(=O)[C@H](C)NC(=O)[C@H](C)NC(=O)[C@H](CCC(N)=O)NC(=O)CNC(=O)[C@H](CCC(=O)O)NC(=O)[C@H](CC(C)C)NC(=O)[C@H](Cc1ccc(O)cc1)NC(=O)[C@H](CO)NC(=O)[C@H](CO)NC(=O)[C@@H](NC(=O)[C@H](CC(=O)O)NC(=O)[C@H](CO)NC(=O)[C@@H](NC(=O)[C@H](Cc1ccccc1)NC(=O)[C@@H](NC(=O)CNC(=O)[C@H](CCC(=O)O)NC(=O)[C@H](C)NC(=O)[C@@H](N)Cc1c[nH]cn1)[C@@H](C)O)[C@@H](C)O)C(C)C)C(=O)N[C@@H](C)C(=O)N[C@@H](Cc1c[nH]c2ccccc12)C(=O)N[C@@H](CC(C)C)C(=O)N[C@H](C(=O)N[C@@H](CCCCN)C(=O)NCC(=O)N[C@@H](CCCNC(=N)N)C(=O)NCC(=O)O)C(C)C` (stereo partly drawn) [L2-GFA16-GLP-1], the “half-lives (in words)” value [2] is reported as “significantly prolonged”.

For `CC[C@H](C)[C@H](NC(=O)[C@H](CCC(=O)O)NC(=O)[C@H](CO)NC(=O)[C@@H](NC(=O)[C@@H](N)CO)C(C)C)C(=O)N[C@@H](CCC(N)=O)C(=O)N[C@@H](CC(C)C)C(=O)N[C@@H](CCSC)C(=O)N[C@@H](Cc1c[nH]cn1)C(=O)N[C@@H](CC(N)=O)C(=O)N[C@@H](CC(C)C)C(=O)NCC(=O)N[C@@H](CCCNC(=N)N)C(=O)N[C@@H](Cc1c[nH]cn1)C(=O)N[C@@H](CC(C)C)C(=O)N[C@@H](CC(N)=O)C(=O)N[C@@H](CO)C(=O)N[C@@H](CCSC)C(=O)N[C@@H](CCC(=O)O)C(=O)N[C@@H](CCCNC(=N)N)C(=O)N[C@H](C(=O)N[C@@H](CCC(=O)O)C(=O)N[C@@H](Cc1c[nH]c2ccccc12)C(=O)N[C@@H](CC(C)C)C(=O)N[C@@H](CCCNC(=N)N)C(=O)N[C@@H](CCCCNC(=O)OCCc1cn(CCOCCOCCOCCOCCNC(=O)CCC(NC(=O)CCCCCCCCCCCCCCC(=O)O)C(=O)O)nn1)C(=O)N[C@@H](CCCNC(=N)N)C(=O)N[C@@H](CC(C)C)C(=O)N[C@@H](CCC(N)=O)C(=O)N[C@@H](CC(=O)O)C(=O)N[C@H](C(=O)N[C@@H](Cc1c[nH]cn1)C(=O)N[C@@H](CC(N)=O)C(=O)N[C@@H](Cc1ccccc1)C(=O)O)C(C)C)C(C)C` (stereo partly drawn) [L4-GFA16-PTH] (H-SVSEIQLMHNLGRHLNSMERVEWLRK(X3)RLQDVHNF-OH), the “half-lives (in words)” value [1] was “significantly prolonged”.

For `CC[C@H](C)[C@H](NC(=O)[C@H](CCC(=O)O)NC(=O)[C@H](CO)NC(=O)[C@@H](NC(=O)[C@@H](N)CO)C(C)C)C(=O)N[C@@H](CCC(N)=O)C(=O)N[C@@H](CC(C)C)C(=O)N[C@@H](CCSC)C(=O)N[C@@H](Cc1c[nH]cn1)C(=O)N[C@@H](CC(N)=O)C(=O)N[C@@H](CC(C)C)C(=O)NCC(=O)N[C@@H](CCCNC(=N)N)C(=O)N[C@@H](Cc1c[nH]cn1)C(=O)N[C@@H](CC(C)C)C(=O)N[C@@H](CC(N)=O)C(=O)N[C@@H](CO)C(=O)N[C@@H](CCSC)C(=O)N[C@@H](CCC(=O)O)C(=O)N[C@@H](CCCNC(=N)N)C(=O)N[C@H](C(=O)N[C@@H](CCC(=O)O)C(=O)N[C@@H](Cc1c[nH]c2ccccc12)C(=O)N[C@@H](CC(C)C)C(=O)N[C@@H](CCCNC(=N)N)C(=O)N[C@@H](CCCCNC(=O)OCCc1cn(CCOCCOCCOCCNC(=O)CCC(NC(=O)CCCCCCCCCCCCCCC(=O)O)C(=O)O)nn1)C(=O)N[C@@H](CCCNC(=N)N)C(=O)N[C@@H](CC(C)C)C(=O)N[C@@H](CCC(N)=O)C(=O)N[C@@H](CC(=O)O)C(=O)N[C@H](C(=O)N[C@@H](Cc1c[nH]cn1)C(=O)N[C@@H](CC(N)=O)C(=O)N[C@@H](Cc1ccccc1)C(=O)O)C(C)C)C(C)C` (stereo partly drawn) [L3-GFA16-PTH] (H-SVSEIQLMHNLGRHLNSMERVEWLRK(X5)RLQDVHNF-OH), the “half-lives (in words)” value [1] was “significantly prolonged”.

In the case of `CC[C@H](C)[C@H](NC(=O)[C@H](Cc1ccccc1)NC(=O)[C@H](CCC(=O)O)NC(=O)[C@H](CCCCNC(=O)OCCc1cn(CCOCCOCCOCCOCCNC(=O)CCC(NC(=O)CCCCCCCCCCCCCCC(=O)O)C(=O)O)nn1)NC(=O)[C@H](C)NC(=O)[C@H](C)NC(=O)[C@H](CCC(N)=O)NC(=O)CNC(=O)[C@H](CCC(=O)O)NC(=O)[C@H](CC(C)C)NC(=O)[C@H](Cc1ccc(O)cc1)NC(=O)[C@H](CO)NC(=O)[C@H](CO)NC(=O)[C@@H](NC(=O)[C@H](CC(=O)O)NC(=O)[C@H](CO)NC(=O)[C@@H](NC(=O)[C@H](Cc1ccccc1)NC(=O)[C@@H](NC(=O)CNC(=O)[C@H](CCC(=O)O)NC(=O)[C@H](C)NC(=O)[C@@H](N)Cc1c[nH]cn1)[C@@H](C)O)[C@@H](C)O)C(C)C)C(=O)N[C@@H](C)C(=O)N[C@@H](Cc1c[nH]c2ccccc12)C(=O)N[C@@H](CC(C)C)C(=O)N[C@H](C(=O)N[C@@H](CCCCN)C(=O)NCC(=O)N[C@@H](CCCNC(=N)N)C(=O)NCC(=O)O)C(C)C` (stereo partly drawn) [L4-GFA16-GLP-1], the “half-lives (in words)” value [2] is reported as “significantly prolonged”.

In the case of `CC[C@H](C)[C@H](NC(=O)[C@H](Cc1ccccc1)NC(=O)[C@H](CCC(=O)O)NC(=O)[C@H](CCCCNC(=O)OCCc1cn(CCNC(=O)CCC(NC(=O)CCCCCCCCCCCCCCC(=O)O)C(=O)O)nn1)NC(=O)[C@H](C)NC(=O)[C@H](C)NC(=O)[C@H](CCC(N)=O)NC(=O)CNC(=O)[C@H](CCC(=O)O)NC(=O)[C@H](CC(C)C)NC(=O)[C@H](Cc1ccc(O)cc1)NC(=O)[C@H](CO)NC(=O)[C@H](CO)NC(=O)[C@@H](NC(=O)[C@H](CC(=O)O)NC(=O)[C@H](CO)NC(=O)[C@@H](NC(=O)[C@H](Cc1ccccc1)NC(=O)[C@@H](NC(=O)CNC(=O)[C@H](CCC(=O)O)NC(=O)[C@H](C)NC(=O)[C@@H](N)Cc1c[nH]cn1)[C@@H](C)O)[C@@H](C)O)C(C)C)C(=O)N[C@@H](C)C(=O)N[C@@H](Cc1c[nH]c2ccccc12)C(=O)N[C@@H](CC(C)C)C(=O)N[C@H](C(=O)N[C@@H](CCCCN)C(=O)NCC(=O)N[C@@H](CCCNC(=N)N)C(=O)NCC(=O)O)C(C)C` (stereo partly drawn) [L0-GFA16-GLP-1], the “half-lives (in words)” value [2] is reported as “significantly prolonged”.

In the case of `CC[C@H](C)[C@H](NC(=O)[C@H](Cc1ccccc1)NC(=O)[C@H](CCC(=O)O)NC(=O)[C@H](CCCCNC(=O)OCCc1cn(CCOCCOCCOCCNC(=O)CCC(NC(=O)CCCCCCCCCCCCCCC(=O)O)C(=O)O)nn1)NC(=O)[C@H](C)NC(=O)[C@H](C)NC(=O)[C@H](CCC(N)=O)NC(=O)CNC(=O)[C@H](CCC(=O)O)NC(=O)[C@H](CC(C)C)NC(=O)[C@H](Cc1ccc(O)cc1)NC(=O)[C@H](CO)NC(=O)[C@H](CO)NC(=O)[C@@H](NC(=O)[C@H](CC(=O)O)NC(=O)[C@H](CO)NC(=O)[C@@H](NC(=O)[C@H](Cc1ccccc1)NC(=O)[C@@H](NC(=O)CNC(=O)[C@H](CCC(=O)O)NC(=O)[C@H](C)NC(=O)[C@@H](N)Cc1c[nH]cn1)[C@@H](C)O)[C@@H](C)O)C(C)C)C(=O)N[C@@H](C)C(=O)N[C@@H](Cc1c[nH]c2ccccc12)C(=O)N[C@@H](CC(C)C)C(=O)N[C@H](C(=O)N[C@@H](CCCCN)C(=O)NCC(=O)N[C@@H](CCCNC(=N)N)C(=O)NCC(=O)O)C(C)C` (stereo partly drawn) [L3-GFA16-GLP-1], the “half-lives (in words)” value [2] is reported as “significantly prolonged”.

With `CC[C@H](C)[C@H](NC(=O)[C@H](Cc1ccccc1)NC(=O)[C@H](CCC(=O)O)NC(=O)[C@H](CCCCNC(=O)OCCc1cn(CCNC(=O)COCCOCCNC(=O)COCCOCCNC(=O)CCC(NC(=O)CCCCCCCCCCCCCCC(=O)O)C(=O)O)nn1)NC(=O)[C@H](C)NC(=O)[C@H](C)NC(=O)[C@H](CCC(N)=O)NC(=O)CNC(=O)[C@H](CCC(=O)O)NC(=O)[C@H](CC(C)C)NC(=O)[C@H](Cc1ccc(O)cc1)NC(=O)[C@H](CO)NC(=O)[C@H](CO)NC(=O)[C@@H](NC(=O)[C@H](CC(=O)O)NC(=O)[C@H](CO)NC(=O)[C@@H](NC(=O)[C@H](Cc1ccccc1)NC(=O)[C@@H](NC(=O)CNC(=O)[C@H](CCC(=O)O)NC(=O)[C@H](C)NC(=O)[C@@H](N)Cc1c[nH]cn1)[C@@H](C)O)[C@@H](C)O)C(C)C)C(=O)N[C@@H](C)C(=O)N[C@@H](Cc1c[nH]c2ccccc12)C(=O)N[C@@H](CC(C)C)C(=O)N[C@H](C(=O)N[C@@H](CCCCN)C(=O)NCC(=O)N[C@@H](CCCNC(=N)N)C(=O)NCC(=O)O)C(C)C` (stereo partly drawn) [L6-GFA16-GLP-1] the “Exposure time in vivo” value ([2]; s.c. 0.5 mg/kg, versus GLP-1) was “prolonged” and the exposure doses ([2]; s.c. 0.5 mg/kg, versus GLP-1) was “increased significantly”.
